The values that follow come from paper PMC11633381, “Acarbose impairs gut Bacteroides growth by targeting intracellular glucosidases” (mBio, 2024).

This data set concerns the molecule itself. Description: SEC; 0.5 mL of 10.6 mg/mL BoSusA or 8.2 mg/mL SusA on HiPrep 16/60 Sephacryl S-200 HR, 20 mM HEPES, 100 mM NaCl, pH 7.0, 0.5 mL/min; compared with BioRad gel filtration standards.

B1: SusA, periplasmic GH13 neopullulanase/alpha-amylase of the Bacteroides thetaiotaomicron Sus (enzyme, UniProt Q8A1G0 23-617, looked up)
chain: TSTIKKVAPTFWWAGMKNPELQILLYGDRISSADVSLSADNITLQEVVKQENPNYLVLYLDLSKAAPQNFDIILKQGKKQTKIPYELKQRRPNASAVEGFDSSDVLYLIMPDRFANGNPSNDIIPGMLEGNVDRNEPFARHGGDLKGIENHLDYIADLGVTSIWLNPIQENDMKEGSYHGYAITDYYQVDRRFGSNEEFRKLTQEANAKGLKVVMDMIFNHCGSDNYLFKDMPSKDWFNFEGNYVQTSFKTATQMDPYASDYEKKIAIDGWFTLTMPDFNQRNRHVATYLIQSSIWWIEYAGINGIRQDTHPYADFDMMARWCKAVNEEYPKFNIVGETWLGNNVLISYWQKDSRLAYPKNSNLPTVMDFPLMEEMNKAFDEETTEWNGGLFRLYEYLSQDIVYSHPMSLLTFLDNHDTSRFYRSEADTKNLDRYKQALTFLLTTRGIPQIYYGTEILMAADKANGDGLLRCDFPGGWPNDTKNCFDAANRTPQQNEAFSFMQKLLQWRKGNEVIAKGQLKHFAPNKGVYVYERKYGDKSVVVFLNGNDREQTIDLVPYQEILPASSAFDLLTEKKVELRNELTLPSREIYLLSF
notes: SusA, Bacteroides thetaiotaomicron VPI-5482, locus tag bt_3704 (NCBI AAO78809.1, 617 amino acids); cloned starting with T23, after the SPI signal peptide; also called bt_3704
Take B1: the “stoichiometry N” value stood at 2.
